Target: recombinant FcRn protein (Homo sapiens (Human)) (UniProt P55899)
Test: BLI (Octet): antibody on anti-CH1 biosensors, recombinant FcRn at pH 6.0; fold change against wild type Motavizumab (p-1342)

- Kd (fold increase): 9.3 fold
- koff (fold decrease): 3.7 fold
- kon (fold increase): 2.5 fold
Substance: LS (antibody)

From patent US20170298119A1
